These results are taken from US20250332230A1.

In assay [1] the target is Human Alkaline Phosphatase/ALPI Protein (His Tag) (Sino Biological Cat. No. 13225-H08H) (human) (UniProt P09923). The experiment in a line: sandwich ECL (MSD), capture AbD54140ad; ST09, HIAP nominal 1.000 ng/mL.
Assay [2] shares this target. The experiment in a line: sandwich ECL (MSD), capture AbD54140ad; LLOQ01, HIAP nominal 0.5000 ng/mL.
For assay [3] the target is unchanged. The experiment in a line: sandwich ECL (MSD), capture AbD54140ad; LC01, HIAP nominal 1.500 ng/mL.
The target is the same in assay [4]. The experiment in a line: sandwich ECL (MSD), capture AbD54140ad; LLOQ02, HIAP nominal 0.5000 ng/mL.
Assay [5] has the same target. Description: sandwich ECL (MSD), capture AbD54140ad; LC02, HIAP nominal 1.500 ng/mL.
The target is the same in assay [6]. Description: sandwich ECL (MSD), capture AbD54140ad; ST02, HIAP nominal 128.0 ng/mL.
Assay [7] has the same target. Description: sandwich ECL (MSD), capture AbD54140ad; ULOQ01, HIAP nominal 256.0 ng/mL.
Assay [8] has the same target. The experiment in a line: sandwich ECL (MSD), capture AbD54140ad; ST01, HIAP nominal 256.0 ng/mL.
Assay [9] has the same target. Description: sandwich ECL (MSD), capture AbD54140ad; MC02, HIAP nominal 12.00 ng/mL.
For assay [10] the target is unchanged. Description: sandwich ECL (MSD), capture AbD54140ad; MC01, HIAP nominal 12.00 ng/mL.
The target is the same in assay [11]. Description: sandwich ECL (MSD), capture AbD54140ad; ST06, HIAP nominal 8.000 ng/mL.
For assay [12] the target is unchanged. The experiment in a line: sandwich ECL (MSD), capture AbD54140ad; ST10, HIAP nominal 0.5000 ng/mL.
Assay [13] has the same target. The experiment in a line: sandwich ECL (MSD), capture AbD54140ad; ST08, HIAP nominal 2.000 ng/mL.
Assay [14] shares this target. The experiment in a line: sandwich ECL (MSD), capture AbD54140ad; ST07, HIAP nominal 4.000 ng/mL.
For assay [15] the target is unchanged. Description: sandwich ECL (MSD), capture AbD54140ad; ST04, HIAP nominal 32.00 ng/mL.
The target is the same in assay [16]. The experiment in a line: sandwich ECL (MSD), capture AbD54140ad; ULOQ02, HIAP nominal 256.0 ng/mL.
For assay [17] the target is unchanged. Description: sandwich ECL (MSD), capture AbD54140ad; HC02, HIAP nominal 192.0 ng/mL.
Assay [18] shares this target. The experiment in a line: sandwich ECL (MSD), capture AbD54140ad; ST05, HIAP nominal 16.00 ng/mL.
Assay [19] has the same target. Description: sandwich ECL (MSD), capture AbD54140ad; ST03, HIAP nominal 64.00 ng/mL.
For assay [20] the target is unchanged. The experiment in a line: sandwich ECL (MSD), capture AbD54140ad; HC01, HIAP nominal 192.0 ng/mL.

UniProt P09923, sequence (P09923 20-503 limits assumed): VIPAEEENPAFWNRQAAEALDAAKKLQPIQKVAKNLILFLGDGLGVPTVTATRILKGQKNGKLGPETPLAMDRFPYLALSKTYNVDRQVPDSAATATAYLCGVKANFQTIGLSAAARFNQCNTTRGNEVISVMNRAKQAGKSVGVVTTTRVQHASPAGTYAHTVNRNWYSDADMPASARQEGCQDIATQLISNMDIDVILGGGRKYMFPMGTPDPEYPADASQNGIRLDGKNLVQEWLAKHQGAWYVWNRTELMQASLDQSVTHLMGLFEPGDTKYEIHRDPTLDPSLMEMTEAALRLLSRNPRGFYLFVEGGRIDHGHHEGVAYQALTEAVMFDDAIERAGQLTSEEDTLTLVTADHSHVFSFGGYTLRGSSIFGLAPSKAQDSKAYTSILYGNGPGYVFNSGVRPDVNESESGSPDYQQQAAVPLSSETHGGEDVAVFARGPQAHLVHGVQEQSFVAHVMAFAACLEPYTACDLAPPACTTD

“sulfo-tagged anti-HIAP monoclonal antibody AbD54130ad from BioRad”: the Instrument Response in assay [1] stood at 7040; in assay [2], 3360; in assay [3], 9110; in assay [4], 3260; in assay [5], 9430; in [6], 416000. Also, the Instrument Response in assay [7] amounted to 508000; in assay [8], 504000; in assay [9], 68900; in assay [10] it was 64000; in assay [11] it was 54400; in assay [12], 3760. The Instrument Response in [13] is 13000; in assay [14], 27300; in [15], 186000; in [16], 528000; in assay [17] it was 456000; in assay [18], 101000. Also, the Instrument Response stood at 301000 in assay [19] and 444000 in [20].
